Experimental data published in US7820179B2, “Pegylated PTH as PTH receptor modulators and uses thereof” (Eli Lilly and Company, priority 2006, dated 2010).
Where two headings read alike, the source gives them in different places. Blank lines part the entries; values can stand above or below the compound they belong to. No end group written: not given here.

Legend:
[1] = system: aged osteopenic ovariectomized rats; assay: Weekly PTH(1-34) in aged osteopenic ovariectomized rats; type: in vivo, rat
Description: Six-month old ovariectomized Sprague-Dawley rats are maintained on a 12 hr light/dark cycle at 22° C. with ad lib access to food (TD 89222 with 0.5% Ca and 0.4% P, Teklad, Madison, Wis.) and water. Ovariectomized rats are allowed to lose bone for 1 month, before treatment with rhPTH (1-34) for the following 3 months. The aged osteopenic ovariectomized rats are injected subcutaneously, weekly, with 0, 10 or 30 μg/kg human PTH(1-34) for 12 weeks. Sham and ovx controls are injected with the vehicle only. Lumbar vertebra are excised at necropsy and analyzed by micro-CT (Stratec), and then prepared for biomechanical testing. Strength in Newtons, (N), is evaluated by loading vertebra specimens to failure. Significance with respect to ovx vehicle controls is indicated by * in Table 7 below (Fishers PLSD, P<0.05).

[2] = system: aged osteopenic ovariectomized rats; conditions: 5 μg/kg/d, aged osteopenic ovariectomized rat model, literature; cited from earlier work
[3] = 5 μg/kg/d (1 nmol/kg/d); cited from earlier work
[4] = system: aged osteopenic ovariectomized rats; assay: Aged osteopenic ovariectomized rats: vertebral BMD/BMC, bone biomechanical strength, serum calcium; type: in vivo, rat; conditions: for Hypercalcemic Dose/Femoral Neck Strength Dose / Hypercalcemic Dose/Midshaft Strength Dose / Hypercalcemic Dose/Vertebral BMC Dose / Hypercalcemic Dose/Vertebral BMD Dose / Hypercalcemic Dose/Vertebral Strength Dose: derived from Table 3; for Vertebral BMC Dose: dose at which Sham level of vertebral BMC is achieved; for Vertebral BMD Dose: dose at which Sham level of vertebral BMD is achieved, s.c. every 6 or 7 days for two months; for Fem Neck Strength Dose: dose at which femoral neck strength comparable to sham vehicle control and positive control is achieved; for Midshaft Strength Dose: dose at which midshaft strength comparable to sham vehicle control and positive control is achieved; for Vertebral Strength Dose: dose at which vertebral strength comparable to sham and positive control is achieved; for Hypercalcemia Dose: sera 24 hours after administration, > means highest dose tested, not reached
Description: Hypercalcemia is defined herein as the upper 97.5 percentile serum calcium value of normal ovariectomized vehicle controls for the animal type used, using clinical chemistry data and sera collected from cardiac puncture (International Federation of Clinical Chemistry, H E Solberg in Tietz Fundamentals of Clinical Chemistry, 5th edition, Burtis C A and Ashwood E R, editors, 2001, pp 251-261). The value reflecting the 97.5 percentile is 11.2 mg of calcium per dL of serum from ovx vehicle control. The “Hypercalcemic Dose”, i.e., the dose at which hypercalcemia is observed 24 hours after injection of the test compound using clinical chemistry data and sera collected from cardiac puncture, is determined by interpolation, using regression analysis to fit the calcemic dose response observed 24 hours after administering the compound to ovariectomized rats.
Female Sprague-Dawley rats about 6 months of age are ovariectomized, except for sham controls, and maintained on a 12 hour light/dark cycle at 22° C. with ad lib access to food (TD 89222 with 0.5% Ca and 0.4% P, Teklad, Madison, Wis.) and water. Ovariectomized (Ovx) rats are allowed to lose bone for one month before treatment with compounds of the invention for two additional months. The compound to be tested is subcutaneously administered at various doses (as indicated in Table 3 below) in a vehicle of 20 mM NaH2PO4 in 0.9% NaCl, 3 mg/ml mannitol, pH 5, every 6 or 7 days for two months. Sham and Ovx controls are treated with the vehicle only (“sham vehicle control” and “ovx vehicle control”). Sera are then collected by cardiac puncture under isoflurane anesthesia at necropsy, and analyzed using a clinical chemistry analyzer. Lumbar vertebra L4-6 and left femora are removed, cleaned of soft-tissue and stored in 50% ethanol/saline at 4° C. At room temperature, L-5 in 50% EtOH/saline are wrapped in Parafilm and centered with respect to the QCT gantry (Research M, Stratec). A coronal scout scan of the L-5 vertebra is generated first in 2D before 3D analysis. QCT parameters are measured including BMD (mg/cc), BMC (mg), and cross-sectional area (mm^2). Lumbar vertebra L-5, femoral midshaft, and proximal femur are then prepared for biomechanical testing. Strength (N) is evaluated by loading the specimens to failure as described previously (Sato, et al., Endocrinology, […]:4330-4337, 1997).
Pegylated compounds of the invention are evaluated in this assay relative to a positive control of 3-5 μg/kg/d PTH(1-38). PTH(1-34) and PTH(1-38) are found to be indistinguishable in terms of skeletal efficacy or calcemic effects in osteopenic ovariectomized rats. It has been previously shown that rats administered 5 μg/kg/d (1 nmol/kg/d) PTH(1-34) have a systemic exposure that is about 3 times that of PTH(1-34) (i.e., FORTEO™) in humans (Tashjian and Chabner, J. Bone Miner Res, 17:1151-1161, 2002; Tashjian and Gagel, J. Bone Miner Res, 21:354-365, 2006). […] This is confirmed for PTH(1-38) in this model with a dosing of 3-5 μg/kg/d.

PTHR1 (PTH Receptor 1) = molecular target: T1, PTHR1 (PTH Receptor 1) (Homo sapiens, UniProt Q03431); assay: PTH receptor internalization in HEK 293 cells transfected with PTHR-emGFP; type: cell-based; conditions: 100 nM
T1 construct: host or cells: HEK 293 cells
T1 sequence (Q03431 27-593): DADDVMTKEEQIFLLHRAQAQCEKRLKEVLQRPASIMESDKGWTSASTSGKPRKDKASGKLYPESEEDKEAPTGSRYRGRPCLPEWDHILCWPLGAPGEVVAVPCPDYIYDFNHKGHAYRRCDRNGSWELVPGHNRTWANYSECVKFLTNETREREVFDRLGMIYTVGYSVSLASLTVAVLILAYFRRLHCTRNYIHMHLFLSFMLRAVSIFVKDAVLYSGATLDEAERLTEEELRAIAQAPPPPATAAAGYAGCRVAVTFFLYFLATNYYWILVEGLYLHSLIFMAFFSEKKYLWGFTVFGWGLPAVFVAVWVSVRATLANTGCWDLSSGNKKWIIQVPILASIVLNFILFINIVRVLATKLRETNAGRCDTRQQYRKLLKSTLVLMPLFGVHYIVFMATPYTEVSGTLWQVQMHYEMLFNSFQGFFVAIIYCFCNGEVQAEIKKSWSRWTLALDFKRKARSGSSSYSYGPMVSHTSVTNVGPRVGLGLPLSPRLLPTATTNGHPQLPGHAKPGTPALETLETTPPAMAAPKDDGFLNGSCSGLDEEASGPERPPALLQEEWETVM
Description: The kinetics of PTHR1 (PTH Receptor 1) internalization for compounds of the invention are determined following ligand binding to membrane receptors. HEK 293 cells are transfected with PTHR-emGFP plasmid (Invitrogen).
The cells are seeded at 7,000 cells/well, 100 μL/well into clear bottomed, black, 96 well plate coated with poly-D lysine. 24 hours after being seeded into the 96 well plate, the cells are dosed with 10 μL of a compound to be tested, at final concentrations of 100 nM at staggered time points from 0 minutes to 3 hours. Media is aspirated at end point of dosing. Cells are fixed with 100 μL Prefer (Anatech, Battle Creek, Mich.) for 30 minutes. Prefer is aspirated from the cells, and cells are washed three times with 100 μL 1×PBS. Cells are stained with 100 μL diluted Hoechst nuclear stain (diluted in 1×PBS) for 30 minutes. Hoechst stain is aspirated and replaced with 1×PBS. Plates are stored in the dark at 4° C. until scanning. Cells are scanned within 48 hours using a Cellomics® ArrayScan. Representative data from various timepoints, set forth as percent of vehicle only control (baseline=100%), are presented in Table 8.

[5] = system: aged osteopenic ovariectomized rats; assay: Direct comparison of 2 kD and 5 kD pegylated SEQ ID NO: 1 in aged osteopenic ovariectomized rats; type: in vivo, rat; conditions: for Serum Calcium: 24 hours after dosing
From the text: A compound of the invention with SEQ ID NO: 1, wherein the mPEG to which it is conjugated is a 2 kD mPEG, is directly compared to a compound of the invention with SEQ ID NO: 1, wherein the mPEG to which it is conjugated is a 5 kD mPEG. Aged osteopenic ovariectomized rats are permitted to lose bone for one month before dosing (nmol/kg as in Table 5 and 6) every 6 days with vehicle alone, or the 2 kD pegylated SEQ ID NO: 1 compound or the 5 kD pegylated SEQ ID NO: 1 compound for 8 weeks.

[6] = up to 30 ug/kg (7 nmol/kg), 12 weeks of treatment
[7] = 11 nmol/kg every 6 days for 8 weeks
[8] = 32 nmol/kg every 6 days for 8 weeks
[9] = 110 nmol/kg every 6 days for 8 weeks

Serum Calcium ([1]; approximately 24 hours after the last dose): normal
Compound: CC[C@H](C)[C@H](NC(=O)[C@H](CCC(=O)O)NC(=O)[C@H](CO)NC(=O)[C@@H](NC(=O)[C@@H](N)CO)C(C)C)C(=O)N[C@@H](CCC(N)=O)C(=O)N[C@@H](CC(C)C)C(=O)N[C@@H](CCSC)C(=O)N[C@@H](Cc1cnc[nH]1)C(=O)N[C@@H](CC(N)=O)C(=O)N[C@@H](CC(C)C)C(=O)NCC(=O)N[C@@H](CCCCN)C(=O)N[C@@H](Cc1cnc[nH]1)C(=O)N[C@@H](CC(C)C)C(=O)N[C@@H](CC(N)=O)C(=O)N[C@@H](CO)C(=O)N[C@@H](CCSC)C(=O)N[C@@H](CCC(=O)O)C(=O)N[C@@H](CCCN=C(N)N)C(=O)N[C@H](C(=O)N[C@@H](CCC(=O)O)C(=O)N[C@@H](Cc1c[nH]c2ccccc12)C(=O)N[C@@H](CC(C)C)C(=O)N[C@@H](CCCN=C(N)N)C(=O)N[C@@H](CCCCN)C(=O)N[C@@H](CCCCN)C(=O)N[C@@H](CC(C)C)C(=O)N[C@@H](CCC(N)=O)C(=O)N[C@@H](CC(=O)O)C(=O)N[C@H](C(=O)N[C@@H](Cc1cnc[nH]1)C(=O)N[C@@H](CC(N)=O)C(=O)N[C@@H](Cc1ccccc1)C(=O)O)C(C)C)C(C)C [PTH(1-34)]
Vertebral strength: Average Load to Failure ([1]; 10 ug/kg s.c. weekly for 12 weeks): 222 N
Vertebral BMD: Average BMD ([1]; 10 μg/kg s.c. weekly for 12 weeks): 534 mg/mL
Vertebral strength: Average Load to Failure ([1]; 30 ug/kg s.c. weekly for 12 weeks): 243 N
Vertebral BMD: Average BMD ([1]; 30 μg/kg s.c. weekly for 12 weeks): 529 mg/mL
Effect on vertebral BMD relative to Ovx vehicle controls [1, 6]: no significant effect
Effect on vertebral biomechanical strength relative to Ovx vehicle controls [1, 6]: no significant effect
Restoration of vertebral BMD from Ovx to sham vehicle control levels [2]: restore vertebral BMD from Ovx to sham vehicle control levels
Systemic exposure in rats relative to PTH(1-34) (FORTEO) in humans [3]: about 3 times

PTHR1 internalization, percent of vehicle only control (baseline=100%) (PTHR1 (PTH Receptor 1); 20 min): 166%
PTHR1 internalization, percent of vehicle only control (baseline=100%) (PTHR1 (PTH Receptor 1); 40 min): 177%
PTHR1 internalization, percent of vehicle only control (baseline=100%) (PTHR1 (PTH Receptor 1); 60 min): 224%
PTHR1 internalization, percent of vehicle only control (baseline=100%) (PTHR1 (PTH Receptor 1); 180 min): 175%
Compound: PTH(1-38): positive control, parathyroid hormone fragment 1-38 (SVSEIQLMHNLGKHLNSMERVEWLRKKLQDVHNFVALG) [reference compound]
Restoration of vertebral BMD from Ovx to sham vehicle control levels ([4]; 3-5 μg/kg/d, positive control): confirmed

Compound: SEQ ID NO: 1 but unpegylated and Lysine at amino acid 26: unpegylated molecule with the backbone of SEQ ID NO: 1 with a lysine residue at position 26 (SVSEIQLMHNLGRHLASMERVEWLRKLLQDVHNF-NH2)
PTHR1 internalization, percent of vehicle only control (baseline=100%) (PTHR1 (PTH Receptor 1); 20 min): 106%
PTHR1 internalization, percent of vehicle only control (baseline=100%) (PTHR1 (PTH Receptor 1); 40 min): 126%
PTHR1 internalization, percent of vehicle only control (baseline=100%) (PTHR1 (PTH Receptor 1); 60 min): 113%
PTHR1 internalization, percent of vehicle only control (baseline=100%) (PTHR1 (PTH Receptor 1); 180 min): 142%

Compound: SEQ ID NO: 1 with 2 kD mPEG (SVSEIQLMHNLGRHLASMERVEWLRKLLQDVHNF-NH2; not fully specified (residue 26))
Hypercalcemia at the highest dose tested ([4]; aged Ovx rats): absence of hypercalcemia
Hypercalcemic Dose/Femoral Neck Strength Dose [4]: >10.0
Hypercalcemic Dose/Midshaft Strength Dose [4]: >3.43
Hypercalcemic Dose/Vertebral BMC Dose [4]: >3.43
Hypercalcemic Dose/Vertebral BMD Dose [4]: >1.0
Hypercalcemic Dose/Vertebral Strength Dose [4]: >10.0
Vertebral BMC Dose [4]: 32 nmol/kg
Vertebral BMD Dose [4]: 110 nmol/kg
Fem Neck Strength Dose [4]: 11 nmol/kg
Midshaft Strength Dose [4]: 32 nmol/kg
Vertebral Strength Dose [4]: 11 nmol/kg
Hypercalcemia Dose [4]: >110 nmol/kg
Vertebral BMD [5, 7]: 590 mg/cc
Serum Calcium [5, 7]: 10.45 mg/dL
Vertebral BMD [5, 8]: 603 mg/cc
Serum Calcium [5, 8]: 10.38 mg/dL
Vertebral BMD [5, 9]: 623 mg/cc
Serum Calcium [5, 9]: 10.25 mg/dL

Compound: SEQ ID NO: 3 with 2 kD mPEG (PVSEIQLMHNLGRHLASMERVEWLRKLLQDVHNF-NH2; also: 2 kD mPEG, site not given here)
Hypercalcemic Dose/Femoral Neck Strength Dose [4]: 8.8
Hypercalcemic Dose/Midshaft Strength Dose [4]: 8.8
Hypercalcemic Dose/Vertebral BMC Dose [4]: 8.8
Hypercalcemic Dose/Vertebral BMD Dose [4]: >0.9
Hypercalcemic Dose/Vertebral Strength Dose [4]: >0.9
Vertebral BMC Dose [4]: 11 nmol/kg
Vertebral BMD Dose [4]: >110 nmol/kg
Fem Neck Strength Dose [4]: 11 nmol/kg
Midshaft Strength Dose [4]: 11 nmol/kg
Vertebral Strength Dose [4]: >110 nmol/kg
Hypercalcemia Dose [4]: 97 nmol/kg
